Measured values taken from US20030120051A1 (SUGEN, published 2003).
One block for each binder: values may come before it.

What was measured:
[1] = target: endogenous c-Src of rat GH3 cells (rat, UniProt Q9WUD9 2-536, limits assumed); assay: immunoprecipitation and immunoblotting of endogenous proteins in GH3 cells
[2] = target: human c-Src (human, UniProt P12931 2-536); assay: immunoprecipitation and immunoblotting of endogenous proteins in IMR-32 cells

binding result [1]: no binding
B1: rat CASPR/p190 (receptor)
chain: WGYYGCNEELVGPLYARSLGASSYYGLFTTARFARLHGISGWSPRIGDPNPWLQIDLMKKHRIRAVATQGAFNSWDWVTRYMLLYGDRVDSWTPFYQQGHNATFFGNVNDSAVVRHDLHYHFTARYIRIVPLAWNPRGKIGLRLGIYGCPYTSNILYFDGDDAISYRFQRGASQSLWDVFAFSFKTEEKDGLLLHTEGSQGDYVTLELQGAHLLLHMSLGSSPIQPRPGHTTVSAGGVLNDLSWHYVRVDRYGREANLTLDGYVHRFVLNGDFERLNLENEIFIGGLVGAARKNLAYRHNFRGCIENVIYNRINIAEMAVQRHSRITFEGNVAFRCLDPVPHPINFGGPHNFVQVPGFPRRGRLAVSFRFRTWDLTGLLLFSRLGDGLGHVELMLSEGQVNVSIAQTGRKKLQFAAGYRLNDGFWHEVNFVAQENHAVISIDDVEGAEVRVSYPLLIRTGTSYFFGGCPKPASRWGCHSNQTAFHGCMELLKVDGQLVNLTLVEFRKLGYFAEVLFDTCGITDRCSPNMCEHDGRCYQSWDDFICYCELTGYKGVTCHEPLYKESCEAYRLSGKYSGNYTIDPDGSGPLKPFVVYCDIRENRAWTVVRHDRLWTTRVTGSSMDRPFLGAIQYWNASWEEVSALANASQHCEQWIEFSCYNSRLLNTAGGYPYSFWIGRNEEQHFYWGGSQPGIQRCACGLDQSCIDPALHCNCDADQPQWRTDKGLLTFVDHLPVTQVVIGDTNRSSSEAQFFLRPLRCYGDRNSWNTISFRTGAALRFPPIRANHSLDVSFYFRTSAPSGVFLENMGGPFCQWRRPYVRVELNTSRDVVFAFDIGNGDENLTVHSDDFEFNDDEWHLVRAEINVKQARLRVDHRPWVLRPMPLQTYIWLEYDQPLYVGSAELKRRPFVGCLRAMRLNGVTLNLEGRANASEGTFPNCTGHCTHPRFPCFHGGRCVERYSYYTCDCDLTAFDGPYCNHDIGGFFETGTWMRYNLQSALRSAAQEFSHMLSRPVPGYEPGYIPGYDTPGYVPGYHGPGYRLPDYPRPGRPVPGYRGPVYNVTGEEVSFSFSTSSAPAVLLYVSSFVRDYMAVLIKEDGTLQLRYQLGTSPYVYQLTTRPVTDGQPHSVNITRVYRNLFIQVDYFPLTEQKFSLLVDSQLDSPKALYLGRVMETGVIDPEIQRYNTPGFSGCLSGVRFNNVAPLKTHFRTPRPMTAELAEAMRVQGELSESNCGAMPRLVSEVPPELDPWYLPPDFPYYHDDGWIAILLGFLVAFLLLGLVGMLVLFYLQNHRYKGSYHTNEPKATHDSHPGGKAPLPPSGPAQAPAPTPAPTQVPTPAPAPASGPGPRDQNLPQILEESRSE
notes: Endogenous in GH3 cells and rat brain, or expressed from pCM190R in COS7 cells; read from membrane lysates; no cleavage site stated; also called Contactin ASsociated PRotein; 190 kDa protein

binding result [2]: no binding
B2: human CASPR/p190 (receptor)
chain: WGYYGCDEELVGPLYARSLGASSYYSLLTAPRFARLHGISGWSPRIGDPNPWLQIDLMKKHRIRAVATQGSFNSWDWVTRYMLLYGDRVDSWTPFYQRGHNSTFFGNVNESAVVRHDLHFHFTARYIRIVPLAWNPRGKIGLRLGLYGCPYKADILYFDGDDAISYRFPRGVSRSLWDVFAFSFKTEEKDGLLLHAEGAQGDYVTLELEGAHLLLHMSLGSSPIQPRPGHTTVSAGGVLNDQHWHYVRVDRFGRDVNFTLDGYVQRFILNGDFERLNLDTEMFIGGLVGAARKNLAYRHNFRGCIENVIFNRVNIADLAVRRHSRITFEGKVAFRCLDPVPHPINFGGPHNFVQVPGFPRRGRLAVSFRFRTWDLTGLLLFSRLGDGLGHVELTLSEGQVNVSIAQSGRKKLQFAAGYRLNDGFWHEVNFVAQENHAVISIDDVEGAEVRVSYPLLIRTGTSYFFGGCPKPASRWDCHSNQTAFHGCMELLKVDGQLVNLTLVEGRRLGFYAEVLFDTCGITDRCSPNMCEHDGRCYQSWDDFICYCELTGYKGETCHTPLYKESCEAYRLSGKTSGNFTIDPDGSGPLKPFVVYCDIRENRAWTVVRHDRLWTTRVTGSSMERPFLGAIQYWNASWEEVSALANASQHCEQWIEFSCYNSRLLNTAGGYPYSFWIGRNEEQHFYWGGSQPGIQRCACGLDRSCVDPALYCNCDADQPQWRTDKGLLTFVDHLPVTQVVIGDTNRSTSEAQFFLRPLRCYGDRNSWNTISFHTGAALRFPPIRANHSLDVSFYFRTSAPSGVFLENMGGPYCQWRRPYVRVELNTSRDVVFAFDVGNGDENLTVHSDDFEFNDDEWHLVRAEINVKQARLRVDHRPWVLRPMPLQTYIWMEYDQPLYVGSAELKRRPFVGCLRAMRLNGVTLNLEGRANASEGTSPNCTGHCAHPRLPCFHGGRCVERYSYYTCDCDLTAFDGPYCNHDIGGFFEPGTWMRYNLQSALRSAAREFSHMLSRPVPGYEPGYIPGYDTPGYVPGYHGPGYRLPDYPRPGRPVPGYRGPVYNVTGEEVSFSFSTSSAPAVLLYVSSFVRDYMAVLIKDDGTLQLRYQLGTSPYVYQLTTRPVTDGQPHSINITRVYRNLFIQVDYFPLTEQKFSLLVDSQLDSPKALYLGRVMETGVIDPEIQRYNTPGFSGCLSGVRFNNVAPLKTHFRTPRPMTAELAEALRVQGELSESNCGAMPRLVSEVPPELDPWYLPPDFPYYHDEGWVAILLGFLVAFLLLGLVGMLVLFYLQNHRYKGSYHTNEPKAAHEYHPGSKPPLPTSGPAQVPTPTAAPNQAPASAPAPAPTPAPAPGPRDQNLPQILEESRSE
notes: Endogenous in IMR-32 neuroblastoma cells
